According to patent US20260209320A1 (ALCHEMAB THERAPEUTICS, published 2026):

T1: Peptide 6 (human)
T1 peptide: QQPPPPPPPPPPPQL

T2: Peptide 14 (human, cyno)
T2 peptide: PQPQPPPPPPPPPPG

T3: Peptide 15 (human, cyno)
T3 peptide: QPQPPPPPPPPPPGP

T4: Peptide 20 (cyno)
T4 peptide: QAQPMLPQPQPPPPP

T5: Epitope 1 (human, cyno)
T5 peptide: QQQQPPPPPPPPPPP

T6: Peptide 1 (human, cyno)
T6 peptide: QQQQQQQQPPPPPPP

T7: Peptide 2 (human, cyno)
T7 peptide: QQQQQQQPPPPPPPP

T8: Peptide 3 (human, cyno)
T8 peptide: QQQQQQPPPPPPPPP

T9: Peptide 4 (human, cyno)
T9 peptide: QQQQQPPPPPPPPPP

T10: Peptide 7 (human)
T10 peptide: PQAQPLLPQPQPPPP

T11: Peptide 8 (human)
T11 peptide: QAQPLLPQPQPPPPP

T12: Peptide 9 (human)
T12 peptide: AQPLLPQPQPPPPPP

T13: Peptide 10 (human)
T13 peptide: QPLLPQPQPPPPPPP

T14: Peptide 11 (human)
T14 peptide: PLLPQPQPPPPPPPP

T15: Peptide 12 (human)
T15 peptide: LLPQPQPPPPPPPPP

T16: Peptide 13 (human)
T16 peptide: LPQPQPPPPPPPPPP

T17: Peptide 16 (human)
T17 peptide: PQPPPPPPPPPPGPA

T18: Peptide 17 (human)
T18 peptide: QPPPPPPPPPPGPAV

T19: Peptide 22 (cyno)
T19 peptide: QPMLPQPQPPPPPPR

T20: Peptide 41 (mouse)
T20 peptide: PPQPPPQGQPPPPPP

T21: Peptide 23 (cyno)
T21 peptide: QQQQQQQQQQPPPPP

B1: ATL_0005335 (antibody, V domains shown)
VH: EVQLVESGGGLVKPGGSLRLSCAASGFTFNKAWMNWVRQAPGKGLEWVGRIKSGIDGGTTDYAAPVQGRFTISRDDSKNTVYLQMNSLNTEDTAVYYCIPPPYYYYYGLDVWGQGTTVTVSS
VL: QSALTQPASVSGSPGQSITISCTGTSSDIGSYNLVSWYQQHPGNAPKPLIYEGSKRPSGVSARFSGSKSGNTASLTISGLQPEDEADYYCSSYAGFNTLVFGGGTKVTVL
notes: human IgG1; also called ATL_5335
B2: ATL_0005331 (antibody, V domains shown)
VH: B1 VH
VL: QSALTQPRSVSGSPGQSITISCTGTSSDVGSYNLVSWFQQHPGKAPKLIIYEVNKRPSGVPDRFSGSKSGNTASLTVSGLQAEDEADYYCGSYAGTNNVFGTGTKLTVL
notes: human IgG1; also called ATL_5331; Human IgG1 ATL_0005331

Experiments:
Peptide 6 [1] = target: T1, Peptide 6; test: peptide microarray; Sp H; IgG 1 µg/ml
Peptide 14 [2] = target: T2, Peptide 14; test: peptide microarray; Sp H; IgG 1 µg/ml
Peptide 15 [3] = target: T3, Peptide 15; test: peptide microarray; Sp H; IgG 1 µg/ml
Peptide 20 [4] = target: T4, Peptide 20; test: peptide microarray; Sp C1; IgG 1 µg/ml
Peptide 14 [5] = target: T2, Peptide 14; test: peptide microarray; Sp C2; IgG 1 µg/ml
Peptide 15 [6] = target: T3, Peptide 15; test: peptide microarray; Sp C2; IgG 1 µg/ml
Epitope 1 = target: T5, Epitope 1; test: peptide microarray; Sp H; IgG 10 µg/ml
Peptide 1 = target: T6, Peptide 1; test: peptide microarray; Sp H; IgG 10 µg/ml
Peptide 2 = target: T7, Peptide 2; test: peptide microarray; Sp H; IgG 10 µg/ml
Peptide 3 = target: T8, Peptide 3; test: peptide microarray; Sp H; IgG 10 µg/ml
Peptide 4 = target: T9, Peptide 4; test: peptide microarray; Sp H; IgG 10 µg/ml
Peptide 6 [7] = target: T1, Peptide 6; test: peptide microarray; Sp H; IgG 10 µg/ml
Peptide 7 = target: T10, Peptide 7; test: peptide microarray; Sp H; IgG 10 µg/ml
Peptide 8 = target: T11, Peptide 8; test: peptide microarray; Sp H; IgG 10 µg/ml
Peptide 9 = target: T12, Peptide 9; test: peptide microarray; Sp H; IgG 10 µg/ml
Peptide 10 = target: T13, Peptide 10; test: peptide microarray; Sp H; IgG 10 µg/ml
Peptide 11 = target: T14, Peptide 11; test: peptide microarray; Sp H; IgG 10 µg/ml
Peptide 12 = target: T15, Peptide 12; test: peptide microarray; Sp H; IgG 10 µg/ml
Peptide 13 = target: T16, Peptide 13; test: peptide microarray; Sp H; IgG 10 µg/ml
Peptide 14 [8] = target: T2, Peptide 14; test: peptide microarray; Sp H; IgG 10 µg/ml
Peptide 15 [9] = target: T3, Peptide 15; test: peptide microarray; Sp H; IgG 10 µg/ml
Peptide 16 = target: T17, Peptide 16; test: peptide microarray; Sp H; IgG 10 µg/ml
Peptide 17 = target: T18, Peptide 17; test: peptide microarray; Sp H; IgG 10 µg/ml
Peptide 20 [10] = target: T4, Peptide 20; test: peptide microarray; Sp C1; IgG 10 µg/ml
Peptide 22 = target: T19, Peptide 22; test: peptide microarray; Sp C1; IgG 10 µg/ml
Peptide 14 [11] = target: T2, Peptide 14; test: peptide microarray; Sp C2; IgG 10 µg/ml
Peptide 15 [12] = target: T3, Peptide 15; test: peptide microarray; Sp C2; IgG 10 µg/ml
Peptide 41 [13] = target: T20, Peptide 41; test: peptide microarray; Sp M; IgG 1 µg/ml
Peptide 23 [14] = target: T21, Peptide 23; test: peptide microarray; Sp C2; IgG 1 µg/ml
Peptide 41 [15] = target: T20, Peptide 41; test: peptide microarray; Sp M; IgG 10 µg/ml
Peptide 23 [16] = target: T21, Peptide 23; test: peptide microarray; Sp C2; IgG 10 µg/ml

Row | Binder | corrected fluorescence intensity (Epitope 1) | corrected fluorescence intensity (Peptide 1) | corrected fluorescence intensity (Peptide 2) | corrected fluorescence intensity (Peptide 3) | corrected fluorescence intensity (Peptide 4) | corrected fluorescence intensity (Peptide 7) | corrected fluorescence intensity (Peptide 8) | corrected fluorescence intensity (Peptide 9) | corrected fluorescence intensity (Peptide 10) | corrected fluorescence intensity (Peptide 11) | corrected fluorescence intensity (Peptide 12) | corrected fluorescence intensity (Peptide 13) | corrected fluorescence intensity (Peptide 16) | corrected fluorescence intensity (Peptide 17) | corrected fluorescence intensity (Peptide 22) | also measured
1 | B1 | 3840 | 729 | 2100 | 3190 | 3680 | 326 | 1510 | 3470 | 5410 | 6680 | 8520 | 9010 | 415 | 166 | 374 | corrected fluorescence intensity (Peptide 6 [1]): 0; corrected fluorescence intensity (Peptide 14 [2]): 335; corrected fluorescence intensity (Peptide 15 [3]): 234; corrected fluorescence intensity (Peptide 20 [4]): 187; corrected fluorescence intensity (Peptide 14 [5]): 0; corrected fluorescence intensity (Peptide 15 [6]): 0; corrected fluorescence intensity (Peptide 6 [7]): 176; corrected fluorescence intensity (Peptide 14 [8]): 1630; corrected fluorescence intensity (Peptide 15 [9]): 1130; corrected fluorescence intensity (Peptide 20 [10]): 1190; corrected fluorescence intensity (Peptide 14 [11]): 0; corrected fluorescence intensity (Peptide 15 [12]): 0
2 | B2 | 2950 | 0 | 1340 | 1670 | 2620 | 119 | 1140 | 1260 | 2250 | 2950 | 3490 | 3960 | 145 | 16.2 | 112 | corrected fluorescence intensity (Peptide 41 [13]): 55; corrected fluorescence intensity (Peptide 23 [14]): 0; corrected fluorescence intensity (Peptide 41 [15]): 197; corrected fluorescence intensity (Peptide 23 [16]): 148
